Measured values published in patent publication US11110171B2, “PD-1 related cancer therapy” (New York University, priority 2017, dated 2021).

Molecular target: T1, SHP2PTP (the catalytic domain of SHP2) (Homo sapiens, UniProt Q06124)
T1 construct: purchased Abcam 42578 (SHP2 catalytic domain); 101112 (SAP)
T1 sequence (Q06124 247-517 limits assumed): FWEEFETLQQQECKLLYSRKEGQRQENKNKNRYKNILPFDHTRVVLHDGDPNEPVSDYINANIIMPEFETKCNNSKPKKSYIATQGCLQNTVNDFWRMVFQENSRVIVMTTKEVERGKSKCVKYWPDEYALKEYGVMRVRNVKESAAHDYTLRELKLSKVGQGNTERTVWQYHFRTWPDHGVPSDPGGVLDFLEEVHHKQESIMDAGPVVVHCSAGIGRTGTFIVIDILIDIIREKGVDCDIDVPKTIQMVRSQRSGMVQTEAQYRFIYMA
Assay: Co-affinity enrichment of His-tagged SAP and GST-tagged SHP2PTP
Format: binding
Conditions: recombinant proteins in the absence of T cell lysate
Procedure: FIG. 3. SAP is indirectly associated with PD-1. (ai) Pervanadate treated Jurkat T cells were transiently transfected with GFP-tagged PD-1 or GFP alone; Whole cell lysates (WCL) were immunoprecipitated with an anti-GFP antibody (IP: GFP), and samples were analyzed by immunoblotting. (aii) Densitometry values of data shown in ai. (b) Jurkat T cells were transfected with plasmids directing expression of the indicated fluorescent proteins and after 24 hours cells were stimulated with anti-CD3 antibodies and recombinant PDL2, followed by live-imaging. Bar, 10 μm. […] (di) Jurkat T cells were transfected with different versions of GFP-tagged PD-1, as indicated, followed by treatment with pervanadate; Whole-cell lysates (Input) were immunoprecipitated with an anti-GFP antibody (IP: GFP), and samples were analyzed by immunoblotting. […] (ei) 293T cells were transfected with plasmid directing expression of GFP-SAP or a control GFP plasmid, followed by treatment with pervanadate; Lysates were pulled-down with the GST-tagged PD-1 and samples were analyzed by immunoblotting. […] (gi) SHP2 KD and scrambled control Jurkat T cells were transfected with GFP-tagged PD-1, followed by treatment with pervanadate; Lysates were immunoprecipitated with an anti-GFP antibody (IP: GFP), and samples were analyzed by immunoblotting. […] Samples were analyzed by immunoblot. […]

B1: SAP: Recombinant human SAP (His tagged), signaling lymphocytic activation molecule-associated protein, purchased from Abcam (protein, UniProt O60880 1-128, looked up)
SH2 domain-containing protein …: MDAVAVYHGKISRETGEKLLLATGLDGSYLLRDSESVPGVYCLCVLYHGYIYTYRVSQTETGSWSAETAPGVHKRYFRKIKNLISAFQKPDQGIVIPLQYPVEKKSSARSTQGTTGIREDPDVCLKAP
modifications: His tag
direct interaction of SAP with SHP2 catalytic domain: lack of direct interaction
